This note sets out measurements from publication PMC10449786.

For the assay, the target named is human citrullinated fibrinogen (hCitFbg) (human) (UniProt P02671). Put plainly: ELISA; Fbg or citrullinated Fbg coated (0.8 μg/mL in PBS, overnight 4 °C); recombinant SAA 10–2000 ng/mL added, 1 h at 37 °C; detected with anti-hSAA1; apparent Kd.

B1: recombinant human serum amyloid A1 (hSAA1) (natural protein)
chain: RSFFSFLGEAFDGARDMWRAYSDMREANYIGSDKYFHARGNYDAAKRGPGGAWAAEVITDARENIQRFFGHGAEDSLADQAANEWGRSGKDPNHFRPAGLPEKY
With B1, the apparent Kd relative to hSAA1-hFbg came to 0.5 fold.
